Data as given in paper PMC5305259 (Molecular Biology of the Cell, 2017).

Target: T1, N-terminally tagged GFP cldn2 with the Linker domain between GFP and cldn2 (mouse, UniProt O88552 1-230)
T1 sequence: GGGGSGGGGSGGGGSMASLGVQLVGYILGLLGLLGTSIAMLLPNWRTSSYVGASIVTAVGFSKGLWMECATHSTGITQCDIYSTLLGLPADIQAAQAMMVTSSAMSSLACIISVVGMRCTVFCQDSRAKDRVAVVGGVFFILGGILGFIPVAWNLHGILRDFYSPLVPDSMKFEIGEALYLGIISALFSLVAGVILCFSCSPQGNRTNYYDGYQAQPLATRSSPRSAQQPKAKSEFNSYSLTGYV
Assay: pull-down

B1: myc-tagged N-terminal half of ZO-1 containing the PDZ domains (ZNA; amino acids 1-887) (domain or fragment, UniProt Q07157 1-887, looked up)
chain: MSARAAAAKSTAMEETAIWEQHTVTLHRAPGFGFGIAISGGRDNPHFQSGETSIVISDVLKGGPAEGQLQENDRVAMVNGVSMDNVEHAFAVQQLRKSGKNAKITIRRKKKVQIPVSRPDPEPVSDNEEDSYDEEIHDPRSGRSGVVNRRSEKIWPRDRSASRERSLSPRSDRRSVASSQPAKPTKVTLVKSRKNEEYGLRLASHIFVKEISQDSLAARDGNIQEGDVVLKINGTVTENMSLTDAKTLIERSKGKLKMVVQRDERATLLNVPDLSDSIHSANASERDDISEIQSLASDHSGRSHDRPPRRSRSRSPDQRSEPSDHSRHSPQQPSNGSLRSRDEERISKPGAVSTPVKHADDHTPKTVEEVTVERNEKQTPSLPEPKPVYAQVGQPDVDLPVSPSDGVLPNSTHEDGILRPSMKLVKFRKGDSVGLRLAGGNDVGIFVAGVLEDSPAAKEGLEEGDQILRVNNVDFTNIIREEAVLFLLDLPKGEEVTILAQKKKDVYRRIVESDVGDSFYIRTHFEYEKESPYGLSFNKGEVFRVVDTLYNGKLGSWLAIRIGKNHKEVERGIIPNKNRAEQLASVQYTLPKTAGGDRADFWRFRGLRSSKRNLRKSREDLSAQPVQTKFPAYERVVLREAGFLRPVTIFGPIADVAREKLAREEPDIYQIAKSEPRDAGTDQRSSGIIRLHTIKQIIDQDKHALLDVTPNAVDRLNYAQWYPIVVFLNPDSKQGVKTMRMRLCPESRKSARKLYERSHKLRKNNHHLFTTTINLNSMNDGWYGALKEAIQQQQNQLVWVSEGKADGATSDDLDLHDDRLSYLSAPGSEYSMYSTDSRHTSDYEDTDTEGGAYTDQELDETLNDEVGTPPESAITRSSEPVREDSSG
- fold binding against GFP cldn2 without the linker: ~3 fold
